From US20060058230A1 (published 2006)
Non-standard residues stand in square brackets, D forms with d. No end group written: not given here. 2Nal = N[C@@H](Cc1ccc2ccccc2c1)C(=O)O; 2Thi = N[C@@H](Cc1cccs1)C(=O)O; β3hL = CC(C)C[C@H](N)CC(=O)O; Nle = CCCC[C@H](N)C(=O)O; βAla = NCCC(=O)O

T1: recombinant hPTH1-receptor (human, UniProt Q03431 27-593)
T1 sequence (looked up): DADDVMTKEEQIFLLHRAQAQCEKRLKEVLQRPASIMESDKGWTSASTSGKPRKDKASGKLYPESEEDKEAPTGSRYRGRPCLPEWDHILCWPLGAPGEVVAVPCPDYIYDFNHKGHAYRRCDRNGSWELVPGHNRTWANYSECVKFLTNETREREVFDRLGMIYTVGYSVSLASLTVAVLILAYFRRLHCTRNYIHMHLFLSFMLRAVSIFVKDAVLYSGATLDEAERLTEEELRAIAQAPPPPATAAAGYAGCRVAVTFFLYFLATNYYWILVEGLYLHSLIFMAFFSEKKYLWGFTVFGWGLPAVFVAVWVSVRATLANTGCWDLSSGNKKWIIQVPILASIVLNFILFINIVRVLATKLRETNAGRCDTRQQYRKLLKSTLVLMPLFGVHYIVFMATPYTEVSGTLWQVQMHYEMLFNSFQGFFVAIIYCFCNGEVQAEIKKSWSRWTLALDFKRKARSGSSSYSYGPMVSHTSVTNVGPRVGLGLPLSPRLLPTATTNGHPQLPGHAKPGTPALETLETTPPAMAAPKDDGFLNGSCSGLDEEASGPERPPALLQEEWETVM

T2: PTH receptor on SaOS-2/B10 cells (UniProt Q03431 27-593)
T2 sequence (looked up): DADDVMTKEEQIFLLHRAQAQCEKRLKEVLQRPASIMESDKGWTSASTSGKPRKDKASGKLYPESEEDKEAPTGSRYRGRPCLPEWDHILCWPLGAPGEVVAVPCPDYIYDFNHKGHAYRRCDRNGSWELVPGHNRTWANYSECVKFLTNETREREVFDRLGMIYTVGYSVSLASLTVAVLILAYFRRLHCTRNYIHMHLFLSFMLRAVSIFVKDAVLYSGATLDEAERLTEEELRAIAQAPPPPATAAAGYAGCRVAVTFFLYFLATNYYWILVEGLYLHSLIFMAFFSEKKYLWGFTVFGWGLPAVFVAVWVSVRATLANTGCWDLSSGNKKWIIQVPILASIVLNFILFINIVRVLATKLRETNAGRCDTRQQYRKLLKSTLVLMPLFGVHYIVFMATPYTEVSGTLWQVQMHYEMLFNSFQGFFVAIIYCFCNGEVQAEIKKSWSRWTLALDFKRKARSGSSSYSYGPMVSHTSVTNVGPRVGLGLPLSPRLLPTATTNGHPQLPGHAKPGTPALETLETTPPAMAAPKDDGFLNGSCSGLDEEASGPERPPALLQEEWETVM


Tests used:
[1] = molecular target: T1, recombinant hPTH1-receptor; assay: cell-based or functional assay
[2] = molecular target: T2, PTH receptor on SaOS-2/B10 cells; assay: cell-based or functional assay
[3] = molecular target: T2, PTH receptor on SaOS-2/B10 cells; assay: competition with mono-125I-[Nle8,18,Tyr34]bPTH(1-34)NH2 on SaOS-2/B10 cells
Description: SaOS-2/B10 cells were maintained for four days after they had reached confluence. The medium was replaced with 5% FBS […] medium and incubated for 2 hrs at room temperature with 10×10⁴ cpm mono-¹²⁵I-[Nle^{8,18},Tyr³⁴(3-¹²⁵I)]bPTH(1-34)NH₂ in the presence or absence of a competing tested polypeptide of the invention. The cells were washed four times with ice-cold PBS and lysed with 0.1M NaOH, and the radioactivity associated with the cells was counted in a scintillation counter. Synthesis of the radiolabelled [Nle^{8,18},Tyr³⁴(3-¹²⁵I)]bPTH(1-34)NH₂ was carried out as described in Goldman M. E., et al., Endocrinology, (1988), 123, 1468-1475.
The binding assay was conducted on the polypeptides of the invention having SEQ ID NO:5, 6, 7, 9, 10, 11, and 12.

[4] = molecular target: T1, recombinant hPTH1-receptor; assay: competition with 125I-[Nle8,18,Nal23,Tyr34]bPTH(1-34)NH2 on HEK293/C21 cells with hPTH1-receptor
Description: Human embryonic kidney (HEK293) cells, stably transfected with recombinant hPTH1-receptor (HEK293/C21 cell line, ˜400,000 receptors/cell) (Pines, M., Adams, A. E., Stueckle, S., Bessalle, R., Rashti-Behar, V., Chorev, M., Rosenblatt, M., and Suva, L. J. Endocrinology 1994, 135, 1713-1716), were maintained in D-MEM medium supplemented with 10% fetal bovine serum and […] glutamine at 37° C. in a humidified atmosphere of 95% air/5% CO₂. The medium was changed every 3-4 days, and the cells were subcultured every week. Ligand stimulated adenylyl cyclase activity and radioreceptor competition binding assays were performed on confluent cultures, 1-3 days after a change of medium.
[Nle^{8,18},Nal²³,Tyr³⁴]bPTH(1-34)-NH₂ was radioiodinated and the crude material was purified as previously described (Roubini, E., Duong, L. T., Gibbons, S. W., Leu, C. T., Caulfield, M. P., Chorev, M., and Rosenblatt, M. Biochemistry 1992, 31, 4026-4033). Briefly, 67 μg of peptide in 50 μL phosphate buffer, pH 7.4, in a borosilicate tube, coated with 10 μg Iodogen® (Pierce Chemical), were treated at room temperature with 2 mCi [¹²⁵I]Na for 12 min, followed by dilution with 200 μL of 0.1% TFA in water.
Cells were plated in 24-well tissue culture dishes (Corning Glass Works, Corning, N.Y.) and grown to subconfluency. […] After incubation, cells were washed twice with PBS and lysed with 0.1 M NaOH. Radioactivity in the lysate was measured in a γ-counter (Analytic GammaTrac™ 1193).

EC50 (half maximal stimulation of adenylate cyclase) [1] [nM] | EC50 (half maximal stimulation of adenylate cyclase) [2] [nM] | IC50 [3] [nM] | IC50 [4] [nM] | Molecule
13.8 | – | – | – | [Nle^8, β-Ala^18,19, Nal^23, Tyr^34]bPTH(1-34)NH2 (peptide)
– | 0.74 | 18.3 | – | AVSEHQLLHDKGKSIQDLRRRFLLHHLLAELHTA-NH2 (Synthetic analog of human PTHrP(1-34), carboxamide at the C-terminus) [[Leu^23,28,31]hPTHrP(1-34)NH2]
– | 25.5 | 30 | – | SVSEIQLMHNLGKHLNSMERVEWLEKKLEKVHNF-NH2 (Synthetic analog of human PTH(1-34), carboxamide at the C-terminus) [[Glu^25,29, Lys^30]hPTH(1-34)NH2]
2.73 | – | – | 117 | AVSEIQF[Nle]HNLGKHLSS[β3hL][βAla]RVE[2Nal]LRKKLQDVHNY-NH2 (N-terminus assumed; SMILES CCCC[C@H](NC(=O)[C@H](Cc1ccccc1)NC(=O)[C@H](CCC(N)=O)NC(=O)[C@@H](NC(=O)[C@H](CCC(=O)O)NC(=O)[C@H](CO)NC(=O)[C@@H](NC(=O)[C@H](C)N)C(C)C)[C@@H](C)CC)C(=O)N[C@@H](Cc1c[nH]cn1)C(=O)N[C@@H](CC(N)=O)C(=O)N[C@@H](CC(C)C)C(=O)NCC(=O)N[C@@H](CCCCN)C(=O)N[C@@H](Cc1c[nH]cn1)C(=O)N[C@@H](CC(C)C)C(=O)N[C@@H](CO)C(=O)N[C@@H](CO)C(=O)N[C@H](CC(=O)NCCC(=O)N[C@@H](CCCNC(=N)N)C(=O)N[C@H](C(=O)N[C@@H](CCC(=O)O)C(=O)N[C@@H](Cc1ccc2ccccc2c1)C(=O)N[C@@H](CC(C)C)C(=O)N[C@@H](CCCNC(=N)N)C(=O)N[C@@H](CCCCN)C(=O)N[C@@H](CCCCN)C(=O)N[C@@H](CC(C)C)C(=O)N[C@@H](CCC(N)=O)C(=O)N[C@@H](CC(=O)O)C(=O)N[C@H](C(=O)N[C@@H](Cc1c[nH]cn1)C(=O)N[C@@H](CC(N)=O)C(=O)N[C@@H](Cc1ccc(O)cc1)C(N)=O)C(C)C)C(C)C)CC(C)C, Synthetic analog of bovine PTH(1-34), carboxamide at the C-terminus) [[Nle^8, β-hLeu^18, β-Ala^19, Nal^23, Tyr^34]bPTH(1-34)NH2]

Continued, molecule first:

Molecule | EC50 (half maximal stimulation of adenylate cyclase) [1] [nM] | EC50 (half maximal stimulation of adenylate cyclase) [2] [nM] | IC50 [3] [nM] | IC50 [4] [nM]
AVSEHQLLHDKGKSIQDLRRRELLEKLLELLHTA-NH2 (Synthetic analog of human PTHrP(1-34), carboxamide at the C-terminus) [[Glu^22,25,29, Leu^23,28,30,31, Lys^26]hPTHrP(1-34)NH2] | – | 5 | 70 | –
AVSEIQF[Nle]HNLGKHLSS[Nle][βAla]RVE[2Nal]LRKKLQDVHNY-NH2 (N-terminus assumed; SMILES CCCC[C@H](NC(=O)[C@H](CO)NC(=O)[C@H](CO)NC(=O)[C@H](CC(C)C)NC(=O)[C@H](Cc1c[nH]cn1)NC(=O)[C@H](CCCCN)NC(=O)CNC(=O)[C@H](CC(C)C)NC(=O)[C@H](CC(N)=O)NC(=O)[C@H](Cc1c[nH]cn1)NC(=O)[C@H](CCCC)NC(=O)[C@H](Cc1ccccc1)NC(=O)[C@H](CCC(N)=O)NC(=O)[C@@H](NC(=O)[C@H](CCC(=O)O)NC(=O)[C@H](CO)NC(=O)[C@@H](NC(=O)[C@H](C)N)C(C)C)[C@@H](C)CC)C(=O)NCCC(=O)N[C@@H](CCCNC(=N)N)C(=O)N[C@H](C(=O)N[C@@H](CCC(=O)O)C(=O)N[C@@H](Cc1ccc2ccccc2c1)C(=O)N[C@@H](CC(C)C)C(=O)N[C@@H](CCCNC(=N)N)C(=O)N[C@@H](CCCCN)C(=O)N[C@@H](CCCCN)C(=O)N[C@@H](CC(C)C)C(=O)N[C@@H](CCC(N)=O)C(=O)N[C@@H](CC(=O)O)C(=O)N[C@H](C(=O)N[C@@H](Cc1c[nH]cn1)C(=O)N[C@@H](CC(N)=O)C(=O)N[C@@H](Cc1ccc(O)cc1)C(N)=O)C(C)C)C(C)C, Synthetic analog of bovine PTH(1-34), carboxamide at the C-terminus) [[Nle^8,18, β-Ala^19, Nal^23, Tyr^34]bPTH(1-34)NH2] | 1.51 | – | – | 59
AVSEHQLLHDKGKSIQDLRRRELLEKLLEKL[2Thi]TA-NH2 (N-terminus assumed; SMILES CC[C@H](C)[C@H](NC(=O)[C@H](CO)NC(=O)[C@H](CCCCN)NC(=O)CNC(=O)[C@H](CCCCN)NC(=O)[C@H](CC(=O)O)NC(=O)[C@H](Cc1c[nH]cn1)NC(=O)[C@H](CC(C)C)NC(=O)[C@H](CC(C)C)NC(=O)[C@H](CCC(N)=O)NC(=O)[C@H](Cc1c[nH]cn1)NC(=O)[C@H](CCC(=O)O)NC(=O)[C@H](CO)NC(=O)[C@@H](NC(=O)[C@H](C)N)C(C)C)C(=O)N[C@@H](CCC(N)=O)C(=O)N[C@@H](CC(=O)O)C(=O)N[C@@H](CC(C)C)C(=O)N[C@@H](CCCNC(=N)N)C(=O)N[C@@H](CCCNC(=N)N)C(=O)N[C@@H](CCCNC(=N)N)C(=O)N[C@@H](CCC(=O)O)C(=O)N[C@@H](CC(C)C)C(=O)N[C@@H](CC(C)C)C(=O)N[C@@H](CCC(=O)O)C(=O)N[C@@H](CCCCN)C(=O)N[C@@H](CC(C)C)C(=O)N[C@@H](CC(C)C)C(=O)N[C@@H](CCC(=O)O)C(=O)N[C@@H](CCCCN)C(=O)N[C@@H](CC(C)C)C(=O)N[C@@H](Cc1cccs1)C(=O)N[C@H](C(=O)N[C@@H](C)C(N)=O)[C@@H](C)O, Synthetic analog of human PTHrP(1-34), carboxamide at the C-terminus) [[Glu^22,25,29, Leu^23,28,31, Lys^26,30, Thi^32]hPTHrP(1-34)NH2] | – | 10 | 90 | –
AVSEHQLLHDKGKSIQDLRRREFLEKLIEKIHTA-NH2 (Synthetic analog of human PTHrP(1-34), carboxamide at the C-terminus) [[Glu^22,25,29, Lys^26,30]hPTHrP(1-34)NH2] | – | 0.42 | 5.5 | –
AVSEIQF[Nle]HNLGKHLS[βAla][β3hL][βAla]RVE[2Nal]LRKKLQDVHNY-NH2 (N-terminus assumed; SMILES CCCC[C@H](NC(=O)[C@H](Cc1ccccc1)NC(=O)[C@H](CCC(N)=O)NC(=O)[C@@H](NC(=O)[C@H](CCC(=O)O)NC(=O)[C@H](CO)NC(=O)[C@@H](NC(=O)[C@H](C)N)C(C)C)[C@@H](C)CC)C(=O)N[C@@H](Cc1c[nH]cn1)C(=O)N[C@@H](CC(N)=O)C(=O)N[C@@H](CC(C)C)C(=O)NCC(=O)N[C@@H](CCCCN)C(=O)N[C@@H](Cc1c[nH]cn1)C(=O)N[C@@H](CC(C)C)C(=O)N[C@@H](CO)C(=O)NCCC(=O)N[C@H](CC(=O)NCCC(=O)N[C@@H](CCCNC(=N)N)C(=O)N[C@H](C(=O)N[C@@H](CCC(=O)O)C(=O)N[C@@H](Cc1ccc2ccccc2c1)C(=O)N[C@@H](CC(C)C)C(=O)N[C@@H](CCCNC(=N)N)C(=O)N[C@@H](CCCCN)C(=O)N[C@@H](CCCCN)C(=O)N[C@@H](CC(C)C)C(=O)N[C@@H](CCC(N)=O)C(=O)N[C@@H](CC(=O)O)C(=O)N[C@H](C(=O)N[C@@H](Cc1c[nH]cn1)C(=O)N[C@@H](CC(N)=O)C(=O)N[C@@H](Cc1ccc(O)cc1)C(N)=O)C(C)C)C(C)C)CC(C)C) [[Nle^8, β-Ala^17,19, β-hLeu^18, Nal^23, Tyr^34]bPTH(1-34)NH2] | 9.97 | – | – | –
SVSEIQLMHNLGKHLNSMERVELLEKLLEKLHNF-NH2 (Synthetic analog of human PTH(1-34), carboxamide at the C-terminus) [[Glu^25,29, Leu^23,27,31, Lys^30]hPTH(1-34)NH2] | – | 24 | 216 | –
SVSEIQLMHNLGKHLNSMERVELLRKLLQDLHNF-NH2 (Synthetic analog of human PTH(1-34), carboxamide at the C-terminus) [[Leu^23,27,31]hPTH(1-34)NH2] | – | 1.12 | 41 | –
